Molecular target: T1, human HER2 extracellular domain, soluble, His-tagged (Homo sapiens)
T1 construct: human HER2 (ERBB2) extracellular domain, subdomains I-IV; the electron density covers amino acids 1 to 575, leaving the last 55 residues invisible; About 86 kDa, of which 17 kDa glycan; The purified His-tagged HER2 (crystals, AUC); also called HER2 ecd; soluble HER2; source: HEK293F; purified (IMAC, Superdex200) for crystals; cell culture supernatant for SPR
Experiment: AUC; multisignal sedimentation velocity (MSSV), 4:1 molar loading of HER2 to antibody (5.8:1.4 μM), PBS, 20 °C, 42,000 rpm, UV 280 and 250 nm and interference, SEDPHAT
Details: both partners purified

B1: anti-HER2 fully human mAb 39S (IgG1κ) (antibody, V domains shown)
VH: EVQLVESGGGLVKPGGSLRLSCAASGFTFSSYSMSWVRQAPGKGLEWVSSISSSSSYIYYADSVKGRFTISRDNAKNSLYLQMNSLRAEDTAVYYCARGGDAYNYYYFDYWGQGTLVTVSS
VL: DIVMTQTPLSLSVTPGQPASISCKSSQSVFFRSNNKNILAWYLQKPGQPPQLLIYWASSRESGVPDRFSGSGSGTDFTLKISRVEAEDVGVYYCQQYFGSPFTFGPGTKVDIK
notes: variable domain of the 39S heavy chain; as in the heavy chain of m1 (PDB 6ATT); human IgG1 heavy chain constant region (its CH1 is also in the heavy chain of PDB 6ATT); whole kappa light chain of 39S; as the light chain of m1 (PDB 6ATT); IgG1 kappa, about 148 kDa; also called 39S mAb; Antibody 39S
stoichiometry N: 2 HER2 per 39S mAb

From article PMC5986207, “Structural insights into the mechanism of action of a biparatopic anti-HER2 antibody” (The Journal of Biological Chemistry, 2018)
